In data set [1] the target is T1, GST-MEIOB construct A (Mus musculus, UniProt Q9D513 136-307).
T1 sequence: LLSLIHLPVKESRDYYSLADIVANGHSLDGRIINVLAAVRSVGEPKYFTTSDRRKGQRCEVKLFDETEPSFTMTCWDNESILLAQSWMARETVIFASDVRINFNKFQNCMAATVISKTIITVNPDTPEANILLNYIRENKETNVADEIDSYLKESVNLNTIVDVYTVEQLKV
Put plainly: EMSA. (In general: A gel shift assay detects complexes by their altered migration in electrophoresis.)

For data set [2], the target named is T1, GST-MEIOB construct A. Put plainly: EMSA. This is another data set of the same source.

The term Kd denotes the constant that tells how readily two partners part at equilibrium. High values mean weaker binding, low ones tighter binding.

B1: 3' flap (30 nt) (dsDNA)
DNA 1: CGATAGTCGGATCCTCTAGACAGCTCCATGGTGTGTGTGTGTGTGTGTGTGTGTGTGTGT
DNA 2: CATGGAGCTGTCTAGAGGATCCGACTATCG
Turning to B1, the binding result in data set [1] is “binds”.

B2: 5' flap (30 nt) (dsDNA)
DNA 1: GTGTGTGTGTGTGTGTGTGTGTGTGTGTGTGGACATCTTTGCCCACCTGCAGGTTCACCC
DNA 2: GGGTGAACCTGCAGGTGGGCAAAGATGTCC
On to B2, for which, in data set [1], the binding result is on record as “binds”.

In the case of GTGTGTGTGTGTGTGTGTGTGTGTGTGTGTGTGTGT (ssDNA) [d36GT], in data set [2], binding was put at a Kd of 0.4 µM.

B3: dsDNA 36 bp (dsDNA)
DNA 1: GTGTGTGTGTGTGTGTGTGTGTGTGTGTGTGTGTGT
DNA 2: ACACACACACACACACACACACACACACACACACAC
On to B3, for which, in data set [1], the binding result is recorded as “no binding”.
